Laboratory results: patent WO2018095428A1 (dated 2018)
Where a chain is given by its changes, count along the chain named. Each block holds one molecule with its values, some of them ahead of it.

Legend:
[1] = molecular target: natural CD47 on the surface of CCRF-CEM cells (UniProt Q08722); assay: flow cytometry on CCRF-CEM cells, sample at 1 ug/ml, Alexa Fluor 488 goat anti-human (H+L); blank control 30.0
[2] = molecular target: T1, human CD47-his (Sino Biological, CAT#12283-HCCH-50) (human, UniProt Q08722 19-139, limits assumed); assay: SPR (Biacore): antibody captured with human Fab capture kit on CM5 chip, human CD47-his flowed over
T1 construct: Bought protein used as analyte in Biacore; also called 人CD47-his; human CD47-his antigen; not shown: His tag of the bought protein

[3] = molecular target: human CD47-his (Sino Biological, CAT#12283-HCCH-50) (human) (UniProt Q08722); assay: SPR (Biacore), KD compared with hu167-4
[4] = molecular target: natural CD47 on the surface of CCRF-CEM cells (UniProt Q08722); assay: flow cytometry on CCRF-CEM cells, antibody at 1 ug/ml, Alexa Fluor 488 goat anti-human (H+L); blank control 30.0

flow cytometry binding signal (流式结合信号) [1]: 65.1
Molecule: IgG4-Fc control

KD fold difference (against ch-055) [2]: 1
Kd [2]: 0.167 nM
koff [2]: 0.000389 s⁻¹
kon [2]: 2.32e+06 M⁻¹ s⁻¹
B1: chimeric antibody ch-055 (antibody, V domains shown)
VH: QVLLQQSGPELVQPGASVKISCKASGYSFTSSYLHWVKQRPGQGLDWIGWIYPESGNTKYNERFKGKATLTADTSSSTAYMQLSSLTSEDSAVYYCSRRGDVFFAYWGQGTTLTVSS
VL: DIVMTQSPSYLTVTAGEKVTMSCKSSQSLLTSGKQKNYLTWYQQKPGQPPKLLIYWASTRESGVPERFRGSGSGTDFTLTISSVQAEDLAVYYCQNDYSYPLTFGAGTKLELN

KD ratio against hu167-4 [3]: 1.3
B2: hu167-31 (antibody, V domains shown)
VH: QVQLVQSGAEVKKPGASVKVSCKASGYTFTSYWMHWVRQAPGQGLEWMGNIDPSDSETHYNQKFKDRVTMTRDTSISTAYMELSRLRSDDTAVYYCARWGYLGRSAMDYWGQGTTVTVSS
VL: DVQMTQSPSSLSASVGDRVTITCRTSKSISKFLAWYQQKPGKAPKLLIYSGSTLQSGVPSRFSGSGSGTDFTLTISSLQPEDFATYYCQQHNEYPWTFGGGTKVEIK

KD fold difference (against ch-167) [2]: 2.04
Kd [2]: 0.664 nM
koff [2]: 0.000991 s⁻¹
kon [2]: 1.49e+06 M⁻¹ s⁻¹
B3: hu167-1 (antibody, V domains shown)
VH: B2 VH
VL: B2 VL with V2I

KD ratio against hu167-4 [3]: 1.2
B4: hu167-32 (antibody, V domains shown)
VH: B2 VH
VL: B2 VL with V2I, M4I

flow cytometry binding signal (流式结合信号) [4]: 27800
KD ratio against hu167-4 [3]: 0.98
B5: hu167-33 (antibody, V domains shown)
VH: B2 VH
VL: B2 VL with M4I

KD fold difference (against ch-055) [2]: 3.5
Kd [2]: 0.585 nM
koff [2]: 0.000976 s⁻¹
kon [2]: 1.67e+06 M⁻¹ s⁻¹
B6: hu055-1 (antibody, V domains shown)
VH: QVQLVQSGAEVKKPGASVKVSCKASGYTFTSSYLHWVRQAPGQRLEWMGWIYPESGNTKYNERFKGRVTITRDTSASTAYMELSSLRSEDTAVYYCARRGDVFFAYWGQGTTVTVSS
VL: DIVMTQSPDSLAVSLGERATINCKSSQSLLTSGKQKNYLTWYQQKPGQPPKLLIYWASTRESGVPDRFSGSGSGTDFTLTISSLQAEDVAVYYCQNDYSYPLTFGQGTKLEIK

KD fold difference (against ch-055) [2]: 1.1
Kd [2]: 0.182 nM
koff [2]: 0.000382 s⁻¹
kon [2]: 2.1e+06 M⁻¹ s⁻¹
B7: hu055-5 (antibody, V domains shown)
VH: B6 VH with E46D, M48I, V68A, I70L, R72A
VL: DIVMTQSPDSLAVSLGERATINCKSSQSLLTSGKQKNYLTWYQQKPGQPPKLLIYWASTRESGVPDRFSGSGSGTDFTLTISSLQAEDVAVYYCQNDYSYPLTFGQGTKLEIKR

KD fold difference (against ch-055) [2]: 3.7
Kd [2]: 0.617 nM
koff [2]: 0.000987 s⁻¹
kon [2]: 1.6e+06 M⁻¹ s⁻¹
B8: hu055-8 (antibody, V domains shown)
VH: B6 VH
VL: B6 VL with D66E

KD fold difference (against ch-167) [2]: 1
Kd [2]: 0.325 nM
koff [2]: 0.000558 s⁻¹
kon [2]: 1.72e+06 M⁻¹ s⁻¹
B9: chimeric antibody ch-167 (antibody, V domains shown)
VH: QVQLQQPGAELVRPGSSVKLSCKASGYTFTSYWMHWVKQRPIQGLEWVGNIDPSDSETHYNQKFKDKATLTVDKSSSTAYMQLSSLTSEDSAVYYCARWGYLGRSAMDYWGQGTSVTVSS
VL: DVQITQSPSYLAASPGETITINCRTSKSISKFLAWYQEKPGKTHKLLIYSGSTLQSGIPSRFSGSGSGTDFTLTISSLEPEDFAMYYCQQHNEYPWTFGGGTKLEIK
